Measurements: patent publication US20100233095A1
pyrene = pyrene (fluorescent label)

Target: fibrillar amyloid target protein (UniProt P05067)
Experiment: pyrene excimer:monomer fluorescence ratio of di-pyrene probe in the presence of fibrillar amyloid target protein

maximal signal gain relative to the reference peptide (SEQ ID NO:1): 2.6 fold
Binder: pyrene-KLVFFAEDVGSNKHAIIELMK(pyrene)-NH2 [Peptide 22 (SEQ ID NO:2)]
